The values below come from the supplement of paper PMC5998384.

In data set [1] the test system is HeLa Kyoto. Put plainly: solubility change mitosis vs G1/S (difference of NP-40 vs SDS log2 ratios) (log2 ratio difference); higher = more soluble in mitosis.
The subject of data set [2] is HeLa Kyoto. Put plainly: thermal stability score vs G1/S (z-score of summed log2 fold changes over temperatures); higher = more thermally stable than in G1/S.
In data set [3] the test system is HeLa Kyoto. Put plainly: melting temperature (median over replicates), in situ; higher = more thermally stable.
The subject of data set [4] is HeLa Kyoto. The data set is described as follows: solubility in G1/S (NP-40 vs SDS abundance) (log2 ratio); higher = more soluble. The following applies: cell cycle stage: G1/S.
The mark [5] stands for this setting: cell cycle stage: early G1 (4.5 h after nocodazole release).
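Throughout, for melting temperature (median over replicates), in situ: HeLa Kyoto cells synchronized by double thymidine or nocodazole block, proteins quantified by TMT10plex mass spectrometry, three independent biological replicates.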
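Throughout, for solubility change mitosis vs G1/S (difference of NP-40 vs SDS log2 ratios): synchronized HeLa Kyoto cells (double thymidine block for G1/S, nocodazole release for mitosis), protein amounts in NP-40 versus SDS lysates quantified by mass spectrometry, three biological replicates.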
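Throughout, for solubility in G1/S (NP-40 vs SDS abundance): HeLa Kyoto cells arrested at G1/S by double thymidine block, proteins quantified by TMT10plex mass spectrometry in mild NP-40 versus SDS extracts, three biological replicates.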
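Throughout, for thermal stability score vs G1/S (z-score of summed log2 fold changes over temperatures): synchronized HeLa Kyoto cells, proteins quantified by TMT10plex mass spectrometry, three biological replicates, mitosis taken 0.5 h after nocodazole release, G1/S directly after double thymidine block.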

For “MAVVPASLSGQDVGSFAYLTIKDRIPQILTKVIDTLHRHKSEFFEKHGEEGVEAEKKAISLLSKLRNELQTDKPFIPLVEKFVDTDIWNQYLEYQQSLLNESDGKSRWFYSPWLLVECYMYRRIHEAIIQSPPIDYFDVFKESKEQNFYGSQESIIALCTHLQQLIRTIEDLDENQLKDEFFKLLQISLWGNKCDLSLSGGESSSQNTNVLNSLEDLKPFILLNDMEHLWSLLSNCKKTREKASATRVYIVLDNSGFELVTDLILADFLLSSELATEVHFYGKTIPWFVSDTTIHDFNWLIEQVKHSNHKWMSKCGADWEEYIKMGKWVYHNHIFWTLPHEYCAMPQVAPDLYAELQKAHLILFKGDLNYRKLTGDRKWEFSVPFHQALNGFHPAPLCTIRTLKAEIQVGLQPGQGEQLLASEPSWWTTGKYGIFQYDGPL [ARMT1]”, the “solubility change mitosis (log2)” value in the data set on HeLa Kyoto [1] is -0.15. Besides, the thermal stability score was 1.02 with HeLa Kyoto [2] (setting [5]) and 1.91 with HeLa Kyoto [2] (cell cycle stage: mitosis). Further, the melting temperature in the data set with HeLa Kyoto [3] (cell cycle stage: G1/S) came out at 49.6 °C; in the data set with HeLa Kyoto [3] (cell cycle stage: mitosis) it was 49 °C. The “solubility in G1/S (log2)” value in the data set with HeLa Kyoto [4] came to 0.0146.
“MAWRGWAQRGWGCGQAWGASVGGRSCEELTAVLTPPQLLGRRFNFFIQQKCGFRKAPRKVEPRRSDPGTSGEAYKRSALIPPVEETVFYPSPYPIRSLIKPLFFTVGFTGCAFGSAAIWQYESLKSRVQSYFDGIKADWLDSIRPQKEGDFRKEINKWWNNLSDGQRTVTGIIAANVLVFCLWRVPSLQRTMIRYFTSNPASKVLCSPMLLSTFSHFSLFHMAANMYVLWSFSSSIVNILGQEQFMAVYLSAGVISNFVSYVGKVATGRYGPSLGASGAIMTVLAAVCTKIPEGRLAIIFLPMFTFTAGNALKAIIAMDTAGMILGWKFFDHAAHLGGALFGIWYVTYGHELIWKNREPLVKIWHEIRTNGPKKGGGSK [PARL]”: in the data set with HeLa Kyoto [1], the “solubility change mitosis (log2)” value is -0.267. The values for the thermal stability score in the data set on HeLa Kyoto [2] (setting [5]) and in the data set with HeLa Kyoto [2] (cell cycle stage: mitosis) were -0.187 and -2.36, respectively. Further, the melting temperature turned out to be 54.9 °C in the data set with HeLa Kyoto [3] (cell cycle stage: G1/S) and 55.8 °C in the data set on HeLa Kyoto [3] (cell cycle stage: mitosis). In the data set with HeLa Kyoto [4], the “solubility in G1/S (log2)” value is -0.0323.
In the case of “MAYPGHPGAGGGYYPGGYGGAPGGPAFPGQTQDPLYGYFAAVAGQDGQIDADELQRCLTQSGIAGGYKPFNLETCRLMVSMLDRDMSGTMGFNEFKELWAVLNGWRQHFISFDTDRSGTVDPQELQKALTTMGFRLSPQAVNSIAKRYSTNGKITFDDYIACCVKLRALTDSFRRRDTAQQGVVNFPYDDFIQCVMSV [SRI]”, the “solubility change mitosis (log2)” value in the data set with HeLa Kyoto [1] came out at 0.318. For the same sequence, the thermal stability score with HeLa Kyoto [2] (setting [5]) was -2.31; in the data set on HeLa Kyoto [2] (cell cycle stage: mitosis), -2.35. Further, the melting temperature came out at 52.8 °C with HeLa Kyoto [3] (cell cycle stage: G1/S) and 52.2 °C with HeLa Kyoto [3] (cell cycle stage: mitosis). Also, the “solubility in G1/S (log2)” value with HeLa Kyoto [4] worked out at 0.028.
Regarding “MCAAQMPPLAHIFRGTFVHSTWTCPMEVLRDHLLGVSDSGKIVFLEEASQQEKLAKEWCFKPCEIRELSHHEFFMPGLVDTHIHASQYSFAGSSIDLPLLEWLTKYTFPAEHRFQNIDFAEEVYTRVVRRTLKNGTTTACYFATIHTDSSLLLADITDKFGQRAFVGKVCMDLNDTFPEYKETTEESIKETERFVSEMLQKNYSRVKPIVTPRFSLSCSETLMGELGNIAKTRDLHIQSHISENRDEVEAVKNLYPSYKNYTSVYDKNNLLTNKTVMAHGCYLSAEELNVFHERGASIAHCPNSNLSLSSGFLNVLEVLKHEVKIGLGTDVAGGYSYSMLDAIRRAVMVSNILLINKVNEKSLTLKEVFRLATLGGSQALGLDGEIGNFEVGKEFDAILINPKASDSPIDLFYGDFFGDISEAVIQKFLYLGDDRNIEEVYVGGKQVVPFSSSV [GDA]”, the “solubility change mitosis (log2)” value in the data set on HeLa Kyoto [1] is -0.0926. Moreover, the thermal stability score in the data set with HeLa Kyoto [2] (setting [5]) is -1.49; in the data set on HeLa Kyoto [2] (cell cycle stage: mitosis), -2.29. The results for the melting temperature in the data set with HeLa Kyoto [3] (cell cycle stage: G1/S) and in the data set on HeLa Kyoto [3] (cell cycle stage: mitosis) were 61.9 °C and 63.7 °C, respectively. Moreover, the “solubility in G1/S (log2)” value in the data set with HeLa Kyoto [4] was found to be 0.0143.
As for “MCDLRRPAAGGMMDLAYVCEWEKWSKSTHCPSVPLACAWSCRNLIAFTMDLRSDDQDLTRMIHILDTEHPWDLHSIPSEHHEAITCLEWDQSGSRLLSADADGQIKCWSMADHLANSWESSVGSLVEGDPIVALSWLHNGVKLALHVEKSGASSFGEKFSRVKFSPSLTLFGGKPMEGWIAVTVSGLVTVSLLKPSGQVLTSTESLCRLRGRVALADIAFTGGGNIVVATADGSSASPVQFYKVCVSVVSEKCRIDTEILPSLFMRCTTDLNRKDKFPAITHLKFLARDMSEQVLLCASSQTSSIVECWSLRKEGLPVNNIFQQISPVVGDKQPTILKWRILSATNDLDRVSAVALPKLPISLTNTDLKVASDTQFYPGLGLALAFHDGSVHIVHRLSLQTMAVFYSSAAPRPVDEPAMKRPRTAGPAVHLKAMQLSWTSLALVGIDSHGKLSVLRLSPSMGHPLEVGLALRHLLFLLEYCMVTGYDWWDILLHVQPSMVQSLVEKLHEEYTRQTAALQQVLSTRILAMKASLCKLSPCTVTRVCDYHTKLFLIAISSTLKSLLRPHFLNTPDKSPGDRLTEICTKITDVDIDKVMINLKTEEFVLDMNTLQALQQLLQWVGDFVLYLLASLPNQGSLLRPGHSFLRDGTSLGMLRELMVVIRIWGLLKPSCLPVYTATSDTQDSMSLLFRLLTKLWICCRDEGPASEPDEALVDECCLLPSQLLIPSLDWLPASDGLVSRLQPKQPLRLQFGRAPTLPGSAATLQLDGLARAPGQPKIDHLRRLHLGACPTEECKACTRCGCVTMLKSPNRTTAVKQWEQRWIKNCLAVEGRGPDACVTSRASEEAPAFVQLGPQSTHHSPRTPRSLDHLHPEDRP [MED16]”, the “solubility change mitosis (log2)” value in the data set on HeLa Kyoto [1] was -0.185. Further, the thermal stability score in the data set on HeLa Kyoto [2] (setting [5]) turned out to be 0.307; in the data set on HeLa Kyoto [2] (cell cycle stage: mitosis), 0.64. Moreover, the figures for the melting temperature in the data set on HeLa Kyoto [3] (cell cycle stage: G1/S) and in the data set with HeLa Kyoto [3] (cell cycle stage: mitosis) were 52.2 °C and 52 °C, respectively. Besides, in the data set on HeLa Kyoto [4], the “solubility in G1/S (log2)” value was -0.121.
